Assay results from US5998583, “BH3 interacting domain death agonist” (Washington University, dated 1999).
Substitutions are numbered along the chain they refer to. Numbers in names are those of the source.

B1: BIDmIII-1 (M97A,D98A) (other)
chain: MDSEVSNGSGLGAKHITDLLVFGFLQSSGCTRQELEVLGRELPVQAYWEADLEDELQTDGSQASRSFNQGRIEPDSESQEEIIHNIARHLAQIGDEAAHNIQPTLVRQLAAQFMNGSLSEEDKRNCLAKALDEVKTAFPRDMENDKAMLIMTMLLAKKVASHAPSLLRDVFHTTVNFINQNLFSYVRNLVRNEMD
B2: BIDmIII-3 (G94A) (other)
chain: B1 chain with G94A, A97M, A98D

Tests used:
[1] = molecular target: human BCL-2 (in FL5.12-Bcl-2 cells) (human, UniProt P10415); assay: In Vitro and In Vivo BCL-2 Binding (summary: GST pull-down and anti-BID immunoprecipitation with anti-BCL-2 blot)
[2] = molecular target: BAX (in FL5.12-Bcl-2 cells) (murine, UniProt Q07813); assay: In Vitro and In Vivo BAX Binding (summary: GST pull-down and anti-BID immunoprecipitation with anti-BAX blot)

| binding result [1] | binding result [2] | Binder |
| --- | --- | --- |
| no binding | – | B1 |
| – | no binding | B2 |
